{
  "source": "paper PMC4052671",
  "about": "“Cloning, expression and characterization of a versatile Baeyer-Villiger monooxygenase from Dietzia sp. D5” (AMB Express, 2014)",
  "molecules": {"B1": {"name": "BVMO4 (Dietzia sp. D5; P2A) (protein)", "chain": "MAFTLPESKIAIDIDFDPDHLRQRFEADKQARERKDQLAQFQGLDDVLEVDDSDPFSEPITREPVTEELDALVLGGGFGGLTAGAYLTQNGVENFRLVEYGGDFGGTWYWNRYPGVQCDIESHIYMPLLEETGYVPSQRYADGSEIFEHAQRIGRHYGLYDRTYFQTRATHARWDEQIQRWEVTTDRGDRFVTRVLLRSNGALTKPQLPKVPGIGDFEGKIFHTSRWDYGYTGGSAAGDLAHLRDKRVAVVGTGATGVQVVPYLAQDAKELVVVQRTPSVVQPRNNRKTDPEWVASLTPGWQYERHDNFNGIISGHEVEGNLVDDGWTHLFPELTGQHLVDVPVGELPEGDQALVAELADMNLLMSAHARVDSIVTDPATADGLKPWFGYMCKRPCFNDEYLEAFNRPNVTLAASPAGIDGITSSGIVVAGTHYEVDCIIFATGFETGSGPAGIYGYDVIGREGHSMQEYFSEGARTFHGFFTHGFPNFVELGMSQTAYYVNFVYMLDRKARHAARLVRHLLDSGIGTFEPTAEAEADWVAEVRRSNEPREAYWGACTPGYYNGQGEVSKAVFRDVYNSSEIDFWNMIEAWWNSGRFEGLVFEPARDAVPVA", "notes": "full length, 612 residues; His-tagged in pET-22b(+) (NcoI/NotI); E. coli BL21-CodonPlus(DE3)-RP; Ni-NTA; about 75 kDa on SDS-PAGE, predicted 72 kDa; FAD added after purification"}},
  "key": {"[1]": {"biological_target": "T1, BVMO4 (Dietzia sp. D5, UniProt U5S003, P2A)", "T1 construct": "full length, 612 residues; His-tagged in pET-22b(+) (NcoI/NotI); E. coli BL21-CodonPlus(DE3)-RP; Ni-NTA; about 75 kDa on SDS-PAGE, predicted 72 kDa; FAD added after purification", "experiment": "activity recovery of purified enzyme on FAD addition", "type": "biochemical", "settings": "FAD added to 10 μM after Ni-NTA purification; phenylacetone as substrate; pH 7.5"}, "[2]": {"system": "CC(=O)Cc1ccccc1", "experiment": "purified protein", "type": "biochemical, Dietzia sp. D5", "settings": "co-substrate NADPH (60 μM in the standard assay), 50 mM sodium phosphate pH 7.5, 10 mM KCl, 25 °C"}, "[3]": {"substrate": "CC1CCCCC1=O", "experiment": "purified protein", "type": "biochemical, Dietzia sp. D5", "settings": "co-substrate NADPH (60 μM in the standard assay), 50 mM sodium phosphate pH 7.5, 10 mM KCl, 25 °C"}, "[4]": {"substrate": "NC(=O)C1=CN([C@@H]2O[C@H](COP(=O)(O)OP(=O)(O)OC[C@H]3O[C@@H](n4cnc5c(N)ncnc54)[C@H](OP(=O)(O)O)[C@@H]3O)[C@@H](O)[C@H]2O)C=CC1", "experiment": "purified protein", "type": "biochemical, Dietzia sp. D5", "settings": "NADPH varied, fixed ketone substrate not stated, 50 mM sodium phosphate pH 7.5, 10 mM KCl, 25 °C, varied: cofactor"}},
  "data": [
    {"molecule": "Cc1cc2nc3c(=O)[nH]c(=O)nc-3n(C[C@H](O)[C@H](O)[C@H](O)COP(=O)(O)OP(=O)(O)OC[C@H]3O[C@@H](n4cnc5c(N)ncnc54)[C@H](O)[C@@H]3O)c2cc1C", "note": "[FAD]", "values": [
      {"measurement": "activity recovery of purified enzyme on FAD addition", "setting": "[1]", "result": "The enzyme lost its activity during the purification process but was recovered upon addition of FAD"}
    ]},
    {"molecule": "BVMO4 (Dietzia sp. D5; P2A)", "values": [
      {"measurement": "Km", "setting": "[2]", "result": "0.829 ± 0.163", "unit": "mM"},
      {"measurement": "Vmax", "setting": "[2]", "result": 4.74, "unit": "µM/min"},
      {"measurement": "kcat", "setting": "[2]", "result": "0.634 ± 0.104", "unit": "s⁻¹"},
      {"measurement": "kcat/Km", "setting": "[2]", "result": "770 ± 30", "unit": "M⁻¹ s⁻¹"}
    ]},
    {"molecule": "B1", "values": [
      {"measurement": "Km", "setting": "[3]", "result": "0.507 ± 0.142", "unit": "mM"},
      {"measurement": "Vmax", "setting": "[3]", "result": 3.07, "unit": "µM/min"},
      {"measurement": "kcat", "setting": "[3]", "result": "0.37 ± 0.095", "unit": "s⁻¹"},
      {"measurement": "kcat/Km", "setting": "[3]", "result": "730 ± 20", "unit": "M⁻¹ s⁻¹"},
      {"measurement": "Km", "setting": "[4]", "result": "0.011 ± 0.002", "unit": "mM"},
      {"measurement": "Vmax", "setting": "[4]", "result": 4.2, "unit": "µM/min"},
      {"measurement": "kcat", "setting": "[4]", "result": "0.507 ± 0.057", "unit": "s⁻¹"},
      {"measurement": "kcat/Km", "setting": "[4]", "result": "45100 ± 1520", "unit": "M⁻¹ s⁻¹"}
    ]}
  ]
}
